Test results taken from the nanobody polyreactivity screen of Harvey et al. (2022).

assay: yeast display, Sf9 membrane polyspecificity reagent, FACS + sequencing; frameworks hold sequencing errors
Procedure, shortened: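 Galactose induction of a Saccharomyces cerevisiae BJ5465 synthetic nanobody display library ran 36–48 hours. The cells were then stained for 1 hour at 4 °C with 10% biotinylated, detergent-solubilized Sf9 membrane reagent, pulled down on streptavidin microbeads and FACS-sorted into low and high (top ~1%) gates on expression and reagent-binding fluorescence. Labels for polyreactivity follow the gate of origin.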

| Sequence | polyreactivity (PSR sort gate) |
| --- | --- |
| QVQLVESGGGLVQAGGSLRLSCAASGSIFTPNAMGWYRQAPGKERALVAAISSSSDRTYYADSVKGRFTISRDNAKNTVYLQMNSLKPEDTAVYYCAAYAQKRYYWGQGTQVTVSS | high polyreactivity |
| QVQLVESGGGLVQAGGSLRLSCAASGSIFTPNSMGSYRPAPGKERELVAAISSSSDRTYYADSVKGRFTISRDNAKNTVYLQRNSLKPEDTAVYYCAAYAQKRYYWGQGTEVTVSS | high polyreactivity |
| QVQLVESGGGLVQAGGSLRLSCAASGSIFTPYAMGWYRQAPGKERELVAAISRSGGSTYYADSVKGRFTISRDKAKNTVYLQMNRLKPADSAVYYCAADVQTLITLGQFDYWGQGTQVTVSS | low polyreactivity |
| QVQLVESGGGLVQAGGSLRLSCAASGSIFTPYAMGWYRQAPGKERELVAAISRSGGSTYYADSVKGRFTISRDNAKITVYLQMNSLKPEDTAVYYCAVVASLSHTETPEYDYWGQGTQGTVSS | low polyreactivity |
| QVQLVESGGGLVQAGGSLRLSCAASGSIFTPYAMGWYRQAPGKERELVATISARGGSTYYADSVKGRFTISRDNAKNTVYLQMNSLKPEDTAVYYCNVDYAQRVFLYDYWGQGTQVTVSS | low polyreactivity |
| QVQLVESGGGLVQAGGSLRLSCAASGSIFTRNAMGWYRQAPGKERELVAAISWRGGITNYADSVKGRFTISRDNAKNTVYLQMNSLKPEDTAVYYCNKKRTRGGYGYWGQGTQVTVSS | high polyreactivity |
| QVQLVESGGGLVQAGGSLRLSCAASGSIFTRNTMGWSRQAPGKERELVAAISQRGGSTYSADSVKGRFTISRDNAKNTVYLQMNSLKPEDTAVYYCAADFSFGYYWDGFWGQGTQVTVSS | high polyreactivity |
| QVQLVESGGGLVQAGGSLRLSCAASGSIFTRYAMGWYRQAPGKERELVAAISRSDGGTNYADSVKGRFTISRDNAKNTVYLQMNSLKPEDTAVYYCAKDWYYYYPYDYWGQGTQVTVSS | low polyreactivity |
| QVQLVESGGGLVQAGGSLRLSCAASGSIFTRYVQGWYRQAPGNDRELVAAISGRGSSTYYADSVKGRFTISRDNAKNTVYLQMNSLKPEDTAVYYCAAEIVVFYSEGQRNTFYYWGQGTQVTVSS | high polyreactivity |
| QVQLVESGGGLVQAGGSLRLSCAASGSIFTSNAMGWYRQAPVKERELVASISSDGSTKYADSVKGRFTISRDNAKNTVYLQMNSLKPEDTAVYYCAADLGYWVYVEYDYWGQGTQVTVSS | low polyreactivity |
| QVQLVESGGGLVQAGGSLRLSCAASGSIFTSYAIGWYRQAPGKERELVAGIDWSGGGTYYADSVKGRFTISRDNAKNTVYLQMNSLKPEDTAVYYCNADGPYTRYGPVDYWGQGTQVTVSS | low polyreactivity |
| QVQLVESGGGLVQAGGSLRLSCAASGSIFTSYAMGWYRQAPGKERELVAGITRGGRTYYADSVKGRFTISRDNAKNTVYLQMNSLKPEDTAVYYCAALSSRHFVFTVDYWGQGTQVTVSS | high polyreactivity |
| QVQLVESGGGLVQAGGSLRLSCAASGSIFTSYGMGWYRQAPGKERELVAAITYSGDRTYYADSVKGRFTISRDNAKITVYLQMNSLNPEDTAVYYCNVAYVYGSFRRRPMGYWGQGTQVTVSS | high polyreactivity |
| QVQLVESGGGLVQAGGSLRLSCAASGSIFTTYAMGWSRQAPGKERELVAAISRSGGSTYSADSVKGRFTISRDNANYTVYLQKNSLKPEDTAVYYCNAVSRYTSDYEDDYWGLGTQVTVSS | high polyreactivity |
| QVQLVESGGGLVQAGGSLRLSCAASGSIFTTYAMGWYRQAPGKERELVAAISRAGDTTYADSVKGRFTISRDNAKNTVYLQMNSLKPEDTAVYYCADYDYWGQGTQVTVSS | low polyreactivity |
| QVQLVESGGGLVQAGGSLRLSCAASGSIFTTYAMGWYRQAPGKERELVAGITGGDSSTYADSVKGRFTISRDNAKNTVYLQMNSLKPEDTAVYYCAVDSPYQHDDYWGQGTQVTVSS | low polyreactivity |
| QVQLVESGGGLVQAGGSLRLSCAASGSIFTTYAMGWYRQAPGKERELVAVISRRGGSTYYADSVKGRFTISRDNAKNTVYLQMNSLTPEDTADYYCNAYTYTYHRDHTDRYNYWGQGTQVTVSS | high polyreactivity |
| QVQLVESGGGLVQAGGSLRLSCAASGSIFTVNAMGWYRPAPAKERELVATISDTGGSTYADSVKGRFTISRYNAKNTVYLQMNSLKPEDTAVYYCNADYYVRRYPPYDYWGQGTQVTVSS | low polyreactivity |
| QVQLVESGGGLVQAGGSLRLSCAASGSIFTVNAMGWYRQAPGKERELVAAIDGSSGSTNYADSVKGRFTISRDNAKNTVYLQMNSLKPEDTAVYYCAADWSYEYGYWGQGTQVTVSS | low polyreactivity |
| QVQLVESGGGLVQAGGSLRLSCAASGSIFTVYAMGWSRQAPGKERELVAAITSGGSTNYADSVKGRFTISRDNAKNTVYLQMNSLKPEDTAVYDCNAVWRYGSARYGYWGQGTQVTVSS | low polyreactivity |
| QVQLVESGGGLVQAGGSLRLSCAASGSIFTWYTMGWYRQAPGKERELVAGIRTGGSTYYADSVKGRFTISRDNAKNTVYLQMNSLKPEDTSVYYCARQRWYRQYYFTSDYWGLGTQVTVSS | high polyreactivity |
| QVQLVESGGGLVQAGGSLRLSCAASGSIFTYNAMGWYRPAPGKERELVAAINTSGSTNYADSVKGRFTISRDNAKNTVYLQMNSLKPEVTAVFYCAAGIVVTGYYYWGQGTQVTVSS | low polyreactivity |

| Sequence | polyreactivity (PSR sort gate) |
| --- | --- |
| QVQLVESGGGLVQAGGSLRLSCAASGSIFTYNAMGWYRQAPGKERELVAAIRLSGGSTYYADSVKGRFTISRDNAKNTVYLQMNSLKPEDTAVYYCATEYDYGSWYPDGWGIFDYWGQGTQVTVSS | low polyreactivity |
| QVQLVESGGGLVQAGGSLRLSCAASGSIFTYNAMGWYRQAPGKERELVATISDGGSTYYADSVKGRFTISRDNAKNTVYLQMNSLKPEDTAVYYCNKDRVSVRYEYWGQGTQVTVSS | low polyreactivity |
| QVQLVESGGGLVQAGGSLRLSCAASGSIFTYNVMGWYRQAPGKERELVAAIRTRGDRTYYADSVKGRFTISRDNAKNTVYLQMNSLKPEDTAVYYCAAAGSYYSHEYWGQGTQVTVSS | high polyreactivity |
| QVQLVESGGGLVQAGGSLRLSCAASGSIFTYTMGWYRQAPGKERELVAVISRSGGRTYYADSVKGRFTISRDNAKNTVYLQMNSLKPEDTAVYYCATDGHNGYYGRYDYWGQGTQVTVSS | high polyreactivity |
| QVQLVESGGGLVQAGGSLRLSCAASGSIFTYYAKGWYRQAPGKERELVAAISRRGTRTYYADSVKGRFTISRDNAKNTVYLQMNSLKPEDTAVYYCAKVGYTYRAYEFAYWGQGTQVTVSS | high polyreactivity |
| QVQLVESGGGLVQAGGSLRLSCAASGSIFTYYAMGWYRQAPGKEREFVAAINRSGGSTYYADSVKGRFTISRDNAKYTVYLQMNSLKPEDTAVYYCAARRGSGALRYNYWGQGTQVTVSS | high polyreactivity |
| QVQLVESGGGLVQAGGSLRLSCAASGSIFTYYAMGWYRQAPGKERELVAAISWNGGTTYYADSVKGLFTISRDNAKNTVYLQMNSLKPEDTAVYYCNKDGSYRYDYWGQGTQVTVSS | low polyreactivity |
| QVQLVESGGGLVQAGGSLRLSCAASGSIFTYYAMGWYRQAPGKERELVADIRWSGGSTYYADSVKGRFTISRDNAKNTVYLQMNSLKPEDTAVYFCNARYYSYWPIYNFDYWGQGTQVTVSS | low polyreactivity |
| QVQLVESGGGLVQAGGSLRLSCAASGSIFTYYVMGWYRQAPGKERELVAAITRSGGRTYYADSVKGRFTISRDNAKNTVYLQMNSLKPEDTAVYYCAARKYTGSGSRYYYWGQGTQVTVSS | high polyreactivity |
| QVQLVESGGGLVQAGGSLRLSCAASGSIFVAYAMGWYRQAPGKERELVAAITYSAGSTYYADSVKGRFTISRDNAKNTVYLQMNSLKPEDTAVYYCAADTYTYFLASYLYGQYDYWGQGTQVTVSS | low polyreactivity |
| QVQLVESGGGLVQAGGSLRLSCAASGSIFVDNAMGWYRQAPGKERELVAAITDSGGRTYYADSVKGRFTISRDNAKNTVYLQMNSLKPEDTAVYYCAAGQSGYAGRRPAFGYWGQGTQVTVSS | low polyreactivity |
| QVQLVESGGGLVQAGGSLRLSCAASGSIFVDNAMGWYRQAPGKERELVAVITLRSGSTNYADSVKGRFTISRDNAKNTVYLQMNSLKPEDTAVYYCAADETYHDYQRDTDDDYWGQGTQVTVSS | low polyreactivity |
| QVQLVESGGGLVQAGGSLRLSCAASGSIFVDNDMGWYRPAPGKERELVAAIRSSGTSTYYADSVKGRFTISRDNAKNTVYLQMNSLKPEDTAVYYCATRYPRRHVYPKPYYYWGQGTQVTVSS | low polyreactivity |
| QVQLVESGGGLVQAGGSLRLSCAASGSIFVDYAMGWYRQAPGKERELVAAITSTGSTTYADSVKGRFTISRDNAKNTVYLQMNSLKPEDTAVYYCAASFRWYGTVRYPYEMYYWGQGTQVTVSS | low polyreactivity |
| QVQLVESGGGLVQAGGSLRLSCAASGSIFVFYAMGWYRQAPGKERELVATISSAGSTYYADSVKGRFTISRDNAKNTVYLQMNSLKPEDTAVYYCARGYIPSYWWYHSDRGDYWGQGTQVTVSS | low polyreactivity |
| QVQLVESGGGLVQAGGSLRLSCAASGSIFVGNAMGWYIQAPGKERELVAAISRSGGSTYYADSVKGRFTISRDNAKNTVYLQMNSLKPEDTAVYYCAAVRKQGSGFDYWGQGTQVTVSS | high polyreactivity |
| QVQLVESGGGLVQAGGSLRLSCAASGSIFVGNAMGWYRPAPGKERELVAAISSSGGSTYYADSVKGRFTISRDNAKNTVYLQMNSLKPEDTAVYYCAADIFSPAFDYWGQGTQVTVSS | low polyreactivity |
| QVQLVESGGGLVQAGGSLRLSCAASGSIFVGNAMGWYRQAPAKERELVDTISWSGGSTYYADSVKGRFTISRDNAKNTVYVQMTSLKPEDTAVYYCAKTPYRRYRYGCYTYRTYDYWGHGTQVTVSS | low polyreactivity |
| QVQLVESGGGLVQAGGSLRLSCAASGSIFVGNAMGWYRQAPGKERELVAAISSGGSTYYADSVKGRFTISRDNAKNTVYLQMNSLKPEDTAVYYCAAYYVRRYSSRPKDDYWGQGTQVTVSS | low polyreactivity |
| QVQLVESGGGLVQAGGSLRLSCAASGSIFVGNTMGWYRQAPGKERELVAALTWSGGRTYYADSVKGRFTISRDNEKNTVYLQMHSLKPEDTAVYYCNALANYIRYYYWGQGTQVTVSS | high polyreactivity |
| QVQLVESGGGLVQAGGSLRLSCAASGSIFVGYAMGWYRQAPGKERELVAAITFRGGSTYYADSVKGRFTISRDNAKNTVYLQMNSLKPEDTAVYYCNRVVRLRRPAQYNYWGQGTQVTVSS | high polyreactivity |
